In US9335325B2, “Immunodominant Mycobacterium tuberculosis peptides from cell wall proteins for early diagnosis and immunization” (priority 2008, dated 2016):

Experiments:
[1] = system: anti-PTRP antibodies in sera from TB patients; experiment: Western blot of rPTRP probed with human sera; format: binding; conditions: for sera showing reactivity with the ~52 kDa protein: positive/tested
[2] = molecular target: T1, Thrombospondin (human platelet) (Homo sapiens, UniProt P07996); experiment: Western blot binding of rPTRP to ECM protein; conditions: ECM protein 5 μg/ml
T1 construct: Thrombospondin (human platelet) was from Calbiochem, EMD Biosciences Inc; purchased Calbiochem, EMD Biosciences Inc; host or cells: human platelet
Procedure: The binding of the purified rPTRP to various ECM proteins was determined both by western blotting and ELISA (21). Laminin-1 (human placenta); fibronectin and fibrinogen (human plasma) and elastin (human lung) were obtained from Sigma; human collagen I; collagen III and collagen IV (human placenta), collagen II (human cartilage) and vitronectin (human plasma) from Chemicon International Inc. Temecula, Calif. Thrombospondin (human platelet) was from Calbiochem, EMD Biosciences Inc. and BSA (negative control) was from Promega. Western blots containing rPTRP (0.4 μg/lane) were blocked with 3% BSA in PBS and incubated with the ECM proteins (5 μg/ml) dissolved in PBS. Negative control lanes were incubated with PBS alone. The bound ECM proteins were detected with appropriate anti-ECM antibodies (anti-laminin, anti-fibronectin, anti-thrombospondin and anti-vitronectin at 1:5000; anti-fibrinogen at 1:1000; anti-Col I, Col III, Col IV and anti-elastin at 1:500; anti-Col II at 1:100) followed by appropriate enzyme-conjugated secondary antibodies (anti-rabbit IgG-AP at 1:2000; anti-goat IgG-AP at 1:3000).

[3] = system: Laminin-1 (human placenta); experiment: Western blot binding of rPTRP to ECM protein; conditions: ECM protein 5 μg/ml
[4] = system: fibronectin (human plasma); experiment: Western blot binding of rPTRP to ECM protein; conditions: ECM protein 5 μg/ml
[5] = system: other ECM proteins tested (fibrinogen, elastin, collagen I-IV, vitronectin); experiment: Western blot binding of rPTRP to other ECM proteins; parameters: species or system human; conditions: data not shown
[6] = system: Laminin-1 (human placenta); experiment: ELISA binding of rPTRP to ECM protein; conditions: rPTRP 5-20 μg/ml coated, laminin 0.5 μg/ml
Procedure: (§1) The wells of ELISA plates were coated with various concentration of rPTRP (5-20 μg/ml in PBS) or BSA for 1 h at 37° C. followed by ON at 4° C. Subsequently, the wells were washed with PBS, blocked with 1% BSA in PBS (2 h at 37° C.), washed again with PBST and incubated with different ECM proteins (1 μg/ml; only laminin at 0.5 μg/ml) for 2 h at 37° C. After washing again, the wells were exposed to respective anti-ECM antibodies and the appropriate enzyme-conjugated secondary antibodies to detect the bound ECM proteins.

[7] = molecular target: T1, Thrombospondin (human platelet); experiment: ELISA binding of rPTRP to ECM protein; conditions: rPTRP 5-20 μg/ml coated
Procedure: as §1

[8] = system: fibronectin (human plasma); experiment: ELISA binding of rPTRP to ECM protein; conditions: rPTRP 5-20 μg/ml coated
Procedure: as §1

T1 sequence (P07996 19-1170): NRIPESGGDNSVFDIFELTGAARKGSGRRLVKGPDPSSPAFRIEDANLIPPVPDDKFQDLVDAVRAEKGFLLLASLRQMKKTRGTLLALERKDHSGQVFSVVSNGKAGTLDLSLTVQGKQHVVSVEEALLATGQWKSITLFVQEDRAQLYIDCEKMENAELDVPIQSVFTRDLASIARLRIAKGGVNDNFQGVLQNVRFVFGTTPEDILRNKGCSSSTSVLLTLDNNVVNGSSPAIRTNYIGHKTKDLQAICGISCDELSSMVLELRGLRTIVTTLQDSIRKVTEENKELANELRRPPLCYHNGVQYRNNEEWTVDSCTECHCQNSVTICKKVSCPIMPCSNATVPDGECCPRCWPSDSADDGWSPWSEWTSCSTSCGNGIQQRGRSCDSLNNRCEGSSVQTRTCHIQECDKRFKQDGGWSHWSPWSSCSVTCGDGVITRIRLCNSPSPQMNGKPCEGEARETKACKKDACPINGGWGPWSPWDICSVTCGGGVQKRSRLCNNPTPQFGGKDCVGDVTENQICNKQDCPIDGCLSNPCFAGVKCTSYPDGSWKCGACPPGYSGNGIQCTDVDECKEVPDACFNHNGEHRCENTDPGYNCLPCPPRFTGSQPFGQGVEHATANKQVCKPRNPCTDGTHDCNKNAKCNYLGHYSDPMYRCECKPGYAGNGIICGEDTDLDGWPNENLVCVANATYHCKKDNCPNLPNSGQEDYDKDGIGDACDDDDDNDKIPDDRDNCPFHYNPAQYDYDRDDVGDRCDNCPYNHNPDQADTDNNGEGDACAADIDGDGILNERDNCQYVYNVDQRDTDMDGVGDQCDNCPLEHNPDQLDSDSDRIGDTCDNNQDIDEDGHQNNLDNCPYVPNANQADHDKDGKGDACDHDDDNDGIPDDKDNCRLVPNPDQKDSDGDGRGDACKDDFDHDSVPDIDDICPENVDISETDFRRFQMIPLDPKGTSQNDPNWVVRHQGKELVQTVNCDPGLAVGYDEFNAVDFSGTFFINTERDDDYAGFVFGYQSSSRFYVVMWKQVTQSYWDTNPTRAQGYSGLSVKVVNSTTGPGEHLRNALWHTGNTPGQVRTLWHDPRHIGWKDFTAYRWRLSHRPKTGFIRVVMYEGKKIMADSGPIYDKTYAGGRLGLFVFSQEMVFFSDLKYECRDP

B1: rPTRP: purified recombinant proline-threonine repetitive protein of Mtb (SEQ ID NO:2), GST tag cleaved (protein)
chain: MDVALGVAVTDRVARLALVDSAAPGTVIDQFVLDVAEHPVEVLTETVVGTDRSLAGENHRLVATRLCWPDQAKADELQHALQDSGVHDVAVISEAQAATALVGAAHAGSAVLLVGDETATLSVVGDPDAPPTMVAVAPVAGADATSTVDTLMARLGDQALAPGDVFLVGRSAEHTTVLADQLRAASTMRVQTPDDPTFALARGAAMAAGAATMAHPALVADATTSLPRAEAGQSGSEGEQLAYSQASDYELLPVDEYEEHDEYGAAADRSAPLSRRSLLIGNAVVAFAVIGFASLAVAVAVTIRPTAASKPVEGHQNAQPGKFMPLLPTQQQAPVPPPPPDDPTAGFQGGTIPAVQNVVPRPGTSPGVGGTPASPAPEAPAVPGVVPAPVPIPVPIIIPPFPGWQPGMPTIPTAPPTTPVTTSATTPPTTPPTTPVTTPPTTPPTTPVTTPPTTPPTTPVTTPPTTVAPTTVAPTTVAPTTVAPTTVAPATATPTTVAPQPTQQPTQQPTQQMPTQQQTVAPQTVAPAPQPPSGGRNGSGGGDLFGGF
modifications: GST tag cleaved; possible residual linker residues; Mycobacterium tuberculosis Strain H37Rv
sera showing significant reactivity with the protein ([1]; 6 PPD+, 6 PPD- and 6 HIV+TB- subjects): none
sera showing reactivity with the ~52 kDa protein ([1]; HIV+TB+ patients): 5/6
sera showing reactivity with the ~52 kDa protein ([1]; HIV-TB+ patients): 4/6
binding to thrombospondin [2]: showed binding
binding to laminin [3]: showed binding
binding to fibronectin [4]: showed binding
binding to other ECM proteins [5]: not with any of the other ECM proteins tested
binding to laminin [6]: in a dose-dependent manner
binding to thrombospondin [7]: in a dose-dependent manner
binding to fibronectin [8]: in a dose-dependent manner
